The source of these data is publication PMC3613824 (Cell Death & Disease, 2013).

The assay has as its target MBP-DLC2 (dynein light chain-2 fused to maltose-binding protein) (UniProt Q96FJ2 1-89). As to the kind of experiment: pull-down.

B1: GST-MVaf1 (myosin-Va medial tail fragment 1, MYO5A 1276-1328 [+B], fused to glutathione-S-transferase) (domain or fragment)
chain: QKEAIQPKDDKNTMTDSTILLEDVQKMKDKGEIAQAYIGLKETNRSSALDYHE
Take B1: the binding result is reported as “binds”.
